US20150141617A1, “PRODUCTION AND PURIFICATION OF ACTIVE EUKARYOTIC FORMYLGLYCINEGENERATING ENZYME (FGE) VARIANTS” (Universität Bielefeld, priority 2013, published 2015)

How the values were obtained:
[1] = tested on: cysteine-containing substrate peptide; test: In vitro FGE activity assay with conditioned media from CHO-FD11 cells; assay type: biochemical; settings: 5 mM GSH vs 2 mM DTT, pH 9.3, conditioned media
Description: FGE activity was assayed using conditioned media that contained either secreted fl-FGE (obtained from CHO-FD FGE-His6 cells) or Δ72-FGE (obtained from CHO-FD Tet-On cells after transient co-transfection with pBI-FGE-HA and pIRES-Furin constructs). After expression for 48 h at 1% or 2.5% FCS containing DMEM, the medium was collected and centrifuged at 500×g for 5 min. The supernatant was analyzed by SDS-PAGE and western blotting and aliquots were directly used for activity testing.
The activity assay was performed in triplicates with three sets of conditioned media at pH 9.3 under standard conditions as described earlier (4) with some modifications; no BSA was added to the reaction mixture and 2 mM DTT or 5 mM GSH were used as reducing agents.
The inventors have recently shown that the N-terminal part of FGE (residues 34-68) is essential to activate sulfatases in vivo (12). By contrast, the N-terminal extension was not required for in vitro FGly-generating activity of purified secreted Δ72-FGE. […] To assess the physiological consequence of the N-terminal truncation by furin on the function of FGE, the inventors analyzed the FGly-generating activity of the processed and the unprocessed forms of secreted FGE in the presence of glutathione (GSH), a physiological reductant, or DTT serving as a control. […]

steroid sulfatase (STS) = test: Steroid sulfatase (STS) activity assay after co-expression with FGE in MSDi Tet-On cells; assay type: cell-based, human; settings: vs STS expressed alone; doxycycline induction
Description: Activity assays of STS were performed as described earlier (15, 23). For western blot analysis, polyclonal antisera against FGE and steroid sulfatase were used as primary antibodies. Horseradish peroxidase-conjugated goat anti-rabbit antibody was used as secondary antibodies. Signals of steroid sulfatase are given as relative amounts, i.e. related to signal intensities detected in cells expressing steroid sulfatase only. Relative specific sulfatase activities were calculated, i.e. catalytic activity divided by the western blot signal (arbitrary units) and referred to that of cells expressing the sulfatase only (relative specific sulfatase activity=1). Absolute values for this reference are given in the legends.
Using this method the inventors examined whether the RYSR motif is required for the activation of sulfatases. cDNAs encoding steroid sulfatase (STS) alone or co-transfected along with cDNAs encoding RYSR-motif alanine variants of FGE in immortalized MSD Tet-On cells were transfected (FIG. 9C). Upon doxycycline induction, STS was barely active when expressed alone, whereas co-expression with FGE-wt increased the activity of STS approx. 50-fold, as observed previously (12).

furin = furin (Homo sapiens, UniProt P09958); test: FGE processing in CHO-FD11 cells co-expressing furin; assay type: cell-based; parameters: expressed in transfected cells; host or cells: CHO-FD11 / CHO-FD11 Tet-On (furin-deficient CHO) cells, transient co-transfection with FGE
From the text: The resulting constructs were verified by full-length sequencing of the coding region to exclude any PCR prone errors. Plasmids for expression of the PCs encoding human furin (Gene ID 5045), human PACE4 (=PCSK6, Gene ID 5046), murine […] (=Pcsk5, Gene ID 18552) and rat PC7 (=Pcsk7, Gene ID 29606) were kindly provided by Abdel-Majid Khatib (18). Note that the PC cDNAs were encoded as pIRES constructs coding also for enhanced green fluorescence protein (EGFP) such that EGFP expression levels serve as a measure of the expression levels of PCs.
3 μg of pSB-FGE-RGS-His6 vector was used for single transfections of HT1080, HeLa, HEK 293, BHK and CHO cells. Conditioned medium was collected after 24 h and centrifuged (500×g, 5 min) Cells were washed once with PBS, treated with trypsin (Lonza) and pelleted by 250×g to remove the medium. Cell pellets were resuspended in PBS (pH 7.4) containing protease inhibitor (PI) cocktail (Sigma) and lysed by sonication 3×10 s on ice. […]
In mammals, the proproteinconvertase family comprises nine enzymes that differ in their substrate specificity and tissue-specific expression and/or subcellular localization (17). […] Indeed, rFurin readily converted almost 90% of endogenous fl-FGE from untransfected HT1080 cells to the truncated form (FIG. 12E). […]

furin, sequence (P09958 108-794): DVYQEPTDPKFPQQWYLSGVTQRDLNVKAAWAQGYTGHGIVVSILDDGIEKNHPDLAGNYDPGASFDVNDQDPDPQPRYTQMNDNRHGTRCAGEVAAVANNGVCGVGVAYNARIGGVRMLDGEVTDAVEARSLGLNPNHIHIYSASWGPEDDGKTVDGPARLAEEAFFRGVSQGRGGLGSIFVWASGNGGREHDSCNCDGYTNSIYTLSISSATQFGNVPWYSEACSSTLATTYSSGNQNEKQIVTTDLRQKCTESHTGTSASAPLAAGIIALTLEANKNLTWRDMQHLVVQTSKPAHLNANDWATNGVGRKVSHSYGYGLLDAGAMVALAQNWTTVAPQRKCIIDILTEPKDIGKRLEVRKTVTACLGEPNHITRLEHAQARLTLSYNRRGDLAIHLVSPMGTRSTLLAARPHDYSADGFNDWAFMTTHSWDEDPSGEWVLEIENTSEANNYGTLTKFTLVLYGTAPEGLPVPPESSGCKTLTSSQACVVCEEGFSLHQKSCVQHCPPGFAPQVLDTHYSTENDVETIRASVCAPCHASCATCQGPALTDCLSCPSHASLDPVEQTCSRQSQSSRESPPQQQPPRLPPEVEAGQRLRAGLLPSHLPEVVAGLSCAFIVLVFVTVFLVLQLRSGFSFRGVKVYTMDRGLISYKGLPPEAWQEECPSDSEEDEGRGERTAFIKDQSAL

B1: FGE: human wild type full length formylglycine generating enzyme with RYSR furin cleavage motif, SEQ ID NO:2 (protein)
chain: ADEFSQEAGTGAGAGSLAGSCGCGTPQRPGAHGSSAAAHRYSREANAPGPVPGERQLAHSKMVPIPAGVFTMGTDDPQIKQDGEAPARRVTIDAFYMDAYEVSNTEFEKFVNSTGYLTEAEKFGDSFVFEGMLSEQVKTNIQQAVAAAPWWLPVKGANWRHPEGPDSTILHRPDHPVLHVSWNDAVAYCTWAGKRLPTEAEWEYSCRGGLHNRLFPWGNKLQPKGQHYANIWQGEFPVTNTGEDGFQGTAPVDAFPPNGYGLYNIVGNAWEWTSDWWTVHHSVEETLNPKGPPSGKDRVKKGGSYMCHRSYCYRYRCAARSQNTPDSSASNLGFRCAADRLPTMDSGRGSHHHHHHH
modifications: cloned matured acitve full length FGE with 6x His tag on C-terminus
FGly-generating activity (% substrate turnover) in the presence of GSH normalized to that of DTT (100%) [1]: as active with GSH as with DTT | increase of STS activity on co-expression (steroid sulfatase (STS)): approx. 50 fold | Δ72-FGE in secretions (furin; coexpression of furin, CHO-FD11 Tet-On): ~100% | form of secreted FGE (furin; furin replenished by exogenous expression): all secreted FGE was in the truncated form
